Assay: soluble fraction after stress (log2 fold change); higher = more stays soluble; pooled small domains, quantitative proteomics
Details: stress: pH 4
Summary of the method: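 Pooled custom libraries of small protein domains were stressed at pH 4 and then measured by high-throughput quantitative proteomics. The fold change in the amount of each domain that stays soluble after the acid stress serves as a measure of aggregation propensity. Fold changes are given on a log2 scale, and higher values mean more of the domain stayed soluble.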

| Sequence | soluble fraction (log2) |
| --- | --- |
| HMISASDLQTYLKGMDYPARKEDLIVHAQRNNAPESVIAAIRQFSDRTYQSAADVSEEFGKI | -0.468 |
| HMGNIITQEAAVKLAQDRVPNATLVKIEYDFDDGRPVYEGELREGRWEYEFEIDAATGEFLKWEKD | -0.163 |
| HMTKEEKEKREKYEKLMKKADELVTAKNHKEAVTVLGQAKAYANPQQTKEIEEKIKAQTAELDKG | 0.24 |
| HMRIAGIDIPDNKRGEVALTYIFGIGRSSSKKILKSAGIDSDKQIGKWTDDESNLVRKLIRDEYTIEGDL | -0.484 |
| HMVGKGASIILDRVNLPQYLEKFNEDGFDTIESLKNLNEIDLKEMGVKKGHIRVILNYLHEEY | -0.48 |
| HMNSPSKVIDISQLRKGMFVQLDLGWMSHPFAVGSFKVSTDEQIQTLRGLGLSEVRYIPEKSDPA | -0.896 |
| HMKFTPPTLEQIKNEMLLKTDEYNADIQSDRFFTYYDSNGWMVGKNKMKKFLVSLVAVFAATSA | -0.374 |
| HMKLSALRDKIKEHLLRQIQNGELQVGKTINLAALSRVTGISVTPIREALTQLEQAQVIQAVPNRGFVVA | 0.184 |
| HMGNLASRVAEQLLDKMRGDSLVPGTRLPSEIAMAKHFGVSRTVMREAIARLKADGLLETRRGSGAFVLAT | -0.0652 |
| HMGASYSQFLDQVDSGNVQKVAFGGDMRGGTSQLTYTTRGGQSSTITAPFDRDLINVLRTKNVEIVQEEP | 0.0587 |
| HMDTPMQEAVLQRLRDKVAQAAAGSKLPTVRQLIADYGVGQHVIQAALEKLRTEGLITSHVGKGTFVG | 0.142 |
| HMKDLSMPDVMGSSLNDAKKALTELGIMDITVRYVESGSSEGSIVGMEPPAGSKFAADGKVVLQVSSGS | 0.0083 |
| HMAAINTYQVRKIYAIAGALGMKSRDGDDALHDLVFGMTGKQHISGLTSAEAYDVIAELEKKQ | -0.223 |
| HMTPKVAVPSFVGWKFEDVERQLGTMGLIRGKVDNHPSEEYSEGRVIWQSVLGEVEKGKVIDFWVSTGPE | -0.776 |
| HMRKMNDAVFYVEMSRPKRGYYTATYKLITRNPNSLPEHEITRRFFQMLEETIRKNPPYYLWTH | 0.104 |
| HMRPEVALSSRELEILEALATGKSNKELAQRLFISEATVKTHLIHIYQKLGVDTRTAAVTVARERKL | -0.431 |
| HMSNQLAVPDVTNMKANAAADRLRQQGLRVELKTESSNTVPRGMAIRTDPAASTMVARGGRVTLIISSGKG | -0.0724 |
| HMKTSTGSAMYLTLDLAEKYAGQAFTLVHKKADGTFEYLYATADVDGKVKFGPVYELSPFMLVKGQL | -0.674 |
| HMVRDGDTFVVPKMDRFARNVEDTLHLVRELTERGVIFQMGHTVYDPHDPWSKLFLTFLAAIAEA | 0.191 |
| HMSHLTKKQEEVLLFIRDYYEEEGRSPSYSDIQHHFGLKSKSSVQDYIGYLKKAGFLQKSVGSRAIELV | ≥ 0.43 |
| HMTVAQEIEARRATIRSSDPAEMARFIRWLIMEGHTEPAADELKKYAENFPEASATTKQLQALLAAR | 0.147 |
| HMSDPDPAEQALLRQFMTRYAAYRRRGQHPAGAFRTASLEVFGQEPSGDLRDVIVDLESGLV | -0.59 |
| HMISDISEIEAIIVEVLKVFPNQLQEYLDGKEKILSFFVGQVMQRTKGRANPSLVNEILKEKIKN | -0.417 |
| HMHGLNQNKPIPIADIVNSVNNYLTSLGKKTITDNSVLSNLKKAAKYLNTAYNLVLRPDSLNMTVTLL | 0.22 |
| HMLESPVEAIIRQIKQLITNGKLKPGDRLPAERLLAENFGVGRGYVREAIMKLEFFGLLKTSPQSGTYVAG | -0.257 |
| HMTEYFTIESQEGERIDRYLSEELEDKSRSYIQKLIRDGHVLVDGKTVKAGYRLVAGDNIAITLPEI | -0.133 |
| HMRISKRQLILESAAAIINEKGADYLTLDAVAQRAGISKGGLFYHFKSKDELIKELVNYANN | -1.57 |
| HMHRFAVLDTVREVAAGGVAATLSIGVGRDADSFDALFKNASMALEMALSRGGDQAVVKDRMNFQFYGG | -0.0192 |

| Sequence | soluble fraction (log2) |
| --- | --- |
| HMDGIDALEPLMRRVFEALPQRRSMTIERAAVAAGLDEESVKIALVRLQLEGYVANDERGWHRSKSPH | -0.000736 |
| HMGLGQRIKARREALGLSQARLGEAVGVSLQAVSNWERDEYLPDTARLPLIARALGLTPGQLME | 0.11 |
| HMQMRKENKILVTDIGEIDEVKVIFDDDNKPYLYSYNGEDEFYRPDETYKFFDNKEQAEEYVREN | -0.891 |
| HMAQLPADMSKVKSADISEAQLQEFIQKATSSGYNMNQIEMEFAKRGMSENEVSLLRPRLRRLMAS | 0.212 |
| HMALIGSNLRHLRNERKLSQQELADLIRVGRTTIANIEANLANPGHKTLLEIVKVFDITIDELLHTDLTK | -0.684 |
| HMQDTTLTSQILRVPSSVNINDLANVLKSLAGKNTVVAPYKAANTIIITGYAPNVRRVLSLANELIPRLDV | -0.0875 |
| HMQISDESSIAKIADEVISEFPSQVSEFRSGKEKVLQFLIGQVMKKTKGKANPQITAKILREKLS | 0.17 |
| HMFINITAITGNNYNTPDAARNALPNTYNKKIGLVFTYRDLTNRYRVYLYNSETSNYIPLDSYM | -1.28 |
| HMANADVVLVDLDKEYTVDAAKFHSVVKHSPFNGFAVKGAPVLTIVRGTVVAENGEVVGQPGHSKMVRP | -0.0368 |
| HMKKPAERRKELVDAAAHLFAEKGYENTSVRDILDAVGGAPGMFYYYFKSKQDIYVAVMEDF | -1.1 |
| HMYRPLYQQVYDFLVKQIAAGEWGPGESLPSEQALAGRLNVSQGTVRKALDALAADSLIDRRQGKGTYVAE | 0.32 |
| HMERLKRVTLSLNQSNYSVTEIARRLQAITGIKDITVVEDEQAVYLKVDPATFDLTLAQQAV | -0.653 |
| HMSATIMVLRASEDIPVGTEIKDNHLTTVEVGSYGLPEGAINDKDTVLGKVAQTNIIKGDYFFPQKLGG | -1.18 |
| HMSYKDIKEASDTGTYRDEENNIDVKWQKLFNGHNEYFDIEAYRDGERVEINNQQADRYIYLIKQEMD | -0.357 |
| HMQMEYEKAIAYILDKIKSGELSIGSKLPAERVIADTLHIGRNSTREALSILHGMGMVDRVHGSGNYISEH | -0.111 |
| HMGNNSIDIKDVIYNLVEISQLQAFDIVKHFKTWENLVNKPDELDTVIDGDSDIVDRIKYKIKSLS | -0.568 |
| HMATIIGSIGIVTQKVGLTGVPGRVYVNNESWAAISANGKEIENDTQVIVVKIDGATLIIEKKG | -0.262 |
| HMVRSEDLIGLQGRITLATDVETRGFVELSVKGSLLRRPALSLKGPLAKNTAVVVTASNDHTLEVEAL | -0.77 |
| HMPDPLYLINGKIVNKSDFNNIDPRSIQSIEVLKANKALEAFGNDGKNGVIKITLKSSNDQM | 0.22 |
| HMIEYILDYLANRGVYAASQGEQQQMEDGIARYLQENGLEDGNTGAYYQKYVSNHLQQISASDLKAYFLN | -1.49 |
| HMDGYTVYTNWGSDTNVARSDQQIQSQIPQLSGATIVGVWTKPIATGGTSYKIRYRTNSGAFTEIDVDQ | -0.0816 |
| HMSVTYRLLITSSPGQAEVFLDGKRVGITPFSARLAAGWYQVRVSKEGYNLWEQHVQLREDQRLTATLT | 0.229 |
| HMKALHEEIAEKIQEQILRSNLAPGDKLDTELELAARYGVSRSTIRQALIQLESAGLIDRLHGRGTFVAD | 0.029 |
| HMSDGIPDLRNLNFLSPQEGDYLNESDRVFGVTINGDGQAYPLRIVNAHEMVNDTLGGEPISLM | -0.34 |
| HMSELLIVGSEQDNTRLDRFLADQYEEYTRSFLQKLIDQGNVSINGISVKKSGIKLKENDEIAVTLPEPQ | -0.588 |
| HMRATLTDETARVVQEPTSESISLTSLRKGEEFEIGKVIRKKKEVWVTVTTSSGVKGYISGDTHIF | ≥ 0.43 |
| HMGIKLSDRQMQIVEIVKSQQPITSEQVAERLNLTRAALRSDLSILTMAGILEARPKVGYSLTGR | 0.14 |
